From PMC10542384

B1: HA-RNF111 wild type (HA-RNF111^WT) in RNF111 KO U2OS cells [not stated] / Arkadia-like 1 (ARKL1) [human (endogenous in U2OS)] (parent)
chain 1: MSQWTPEYNELYTLKVDMKSEIPSDAPKTQESLKGILLHPEPIGAAKSFPAGVEMINSKVGNEFSHLCDDSQKQEKEMNGNQQEQEKSLVVRKKRKSQQAGPSYVQNCVKENQGILGLRQHLGTPSDEDNDSSFSDCLSSPSSSLHFGDSDTVTSDEDKEVSVRHSQTILNAKSRSHSARSHKWPRTETESVSGLLMKRPCLHGSSLRRLPCRKRFVKNNSSQRTQKQKERILMQRKKREVLARRKYALLPSSSSSSENDLSSESSSSSSTEGEEDLFVSASENHQNNPAVPSGSIDEDVVVIEASSTPQVTANEEINVTSTDSEVEIVTVGESYRSRSTLGHSRSHWSQGSSSHASRPQEPRNRSRISTVIQPLRQNAAEVVDLTVDEDEPTVVPTTSARMESQATSASINNSNPSTSEQASDTASAVTSSQPSTVSETSATLTSNSTTGTSIGDDSRRTTSSAVTETGPPAMPRLPSCCPQHSPCGGSSQNHHALGHPHTSCFQQHGHHFQHHHHHHHTPHPAVPVSPSFSDPACPVERPPQVQAPCGANSSSGTSYHEQQALPVDLSNSGIRSHGSGSFHGASAFDPCCPVSSSRAAIFGHQAAAAAPSQPLSSIDGYGSSMVAQPQPQPPPQPSLSSCRHYMPPPYASLTRPLHHQASACPHSHGNPPPQTQPPPQVDYVIPHPVHAFHSQISSHATSHPVAPPPPTHLASTAAPIPQHLPPTHQPISHHIPATAPPAQRLHPHEVMQRMEVQRRRMMQHPTRAHERPPPHPHRMHPNYGHGHHIHVPQTMSSHPRQAPERSAWELGIEAGVTAATYTPGALHPHLAHYHAPPRLHHLQLGALPLMVPDMAGYPHIRYISSGLDGTSFRGPFRGNFEELIHLEERLGNVNRGASQGTIERCTYPHKYKKVTTDWFSQRKLHCKQDGEEGTEEDTEEKCTICLSILEEGEDVRRLPCMHLFHQVCVDQWLITNKKCPICRVDIEAQLPSES
chain 2: MKMEEAVGKVEELIESEAPPKASEQETAKEEDGSVELESQVQKDGVADSTVISSMPCLLMELRRDSSESQLASTESDKPTTGRVYESDSSNHCMLSPSSSGHLADSDTLSSAEENEPSQAETAVEGDPSGVSGATVGRKSRRSRSESETSTMAAKKNRQSSDKQNGRVAKVKGHRSQKHKERIRLLRQKREAAARKKYNLLQDSSTSDSDLTCDSSTSSSDDDEEVSGSSKTITAEIPDGPPVVAHYDMSDTNSDPEVVNVDNLLAAAVVQEHSNSVGGQDTGATWRTSGLLEELNAEAGHLDPGFLASDKTSAGNAPLNEEINIASSDSEVEIVGVQEHARCVHPRGGVIQSVSSWKHGSGTQYVSTRQTQSWTAVTPQQTWASPAEVVDLTLDEDSRRKYLL

Variants of: B1
Assay: proximity ligation assay (PLA)
Conditions: with Arkadia-like 1 (ARKL1) [human (endogenous in U2OS)]; RNF111 KO U2OS cells complemented with vector (n = 19), HA-RNF111WT (n = 18), HA-RNF111 K237/238R (n = 28); antibodies to HA and ARKL1; parent: 7.5; read off a plot

**Q.** With chain 1 K237R K238R as the variant, how does the response (PLA foci per cell) read?
**A.** Its response (PLA foci per cell) is 3.2.
